Measured values from the supplement of paper PMC11865577.

Tests used:
Test in all cases: pull-down binding Z-score (relative to library population); higher = stronger binding
TO-N3 (biotin conjugate) = details: RNA library: Library-2
Method in brief: (§1)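 Streptavidin beads bearing 100 pmol of a biotin-conjugated small molecule were incubated for 60 min at 25 °C with 1 μg of heat-folded, Cy5- or Cy3-end-labelled RNA library in phosphate/NaCl/KCl buffer. Hot SDS eluted the RNA that stayed bound after three washes, and this RNA was hybridised for 20 h at 55.5 °C to a DNA barcode microarray. Binding was expressed as a Z-score against the library mean and standard deviation, after subtraction of a beads-only signal and trimmed averaging of barcoded replicate probes.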

[1] = test system: TO-3-N3-2 (biotin conjugate); details: RNA library: Library-2
Method in brief: as §1

[2] = test system: TO-3-N3 (biotin conjugate); details: RNA library: Library-2
Method in brief: as §1

[3] = test system: G-clamp-N3 (biotin conjugate); details: RNA library: Library-1 (pre-miRNA loops + repeats)
Method in brief: as §1

[4] = test system: TO-N3-2 (biotin conjugate); details: RNA library: Library-2
Method in brief: as §1

Sequence | pull-down binding Z-score (TO-N3 (biotin conjugate)) | pull-down binding Z-score [1] | pull-down binding Z-score [2] | pull-down binding Z-score [3] | pull-down binding Z-score [4]
CUACAUCGUGGAAGCCAGCACCAUGCAG [hsa-mir-455] | 0.826 | -0.206 | 0.731 | 0.169 | 0.773
ACACUGCGCUGCCCCAGACCCACUGU [hsa-mir-210] | 0.83 | 0.103 | 0.364 | -1.18 | 0.683
UGCAAAUGCAAAGUUGGCUUUUGCA [hsa-mir-3680-2_3680-1] | -0.954 | -0.253 | -0.669 | 1.8 | -0.878
GGGGCUCUU [hsa-mir-4634] | 0.365 | 0.0655 | 0.0873 | -0.697 | 0.21
GAGACUUAGAAAUCCCUAAGUCUC [hsa-mir-3921] | -0.761 | -0.246 | -0.258 | 0.443 | -0.875
AUGGUUCCUAUUCUGAUCAAUAAACAUGGUUUGAGCCUAGUUACAAUGAUCUAAAAUUCACGGUCCAA [hsa-mir-548o] | -0.587 | -0.193 | -0.961 | -1.15 | -0.0344
GGGUGUAUGGUAUAGGGGUAGCCU [hsa-mir-3137] | 2.5 | 1.54 | 2.13 | 3.31 | 2.42
CUCACAUGGAGUAAAAUAUGAU [hsa-mir-3134] | 0.711 | 0.194 | 0.744 | -1.71 | 0.206
UUCUGUUGUCAGAAAGAAGAGAA [hsa-mir-1283-1] | 0.0942 | -0.107 | 0.146 | 0.462 | -0.0355
CUAUUCAGAAAUGUGGCCUGUGAUUAG [hsa-mir-1295a] | -0.0755 | 0.231 | -0.00311 | 0.22 | 0.169
AGUGUGCAGUCAUCCACACA [hsa-mir-4731] | -0.519 | -0.196 | -0.32 | -0.603 | -0.401
AUUGCACGUGUGUGAGGCGGGUGCAGU [hsa-mir-33b] | 0.7 | 0.102 | 0.626 | 0.513 | 0.592
CAUGAUUUGGAAAAAUUACUG [hsa-mir-6128] | -0.151 | -0.0805 | -0.174 | -0.888 | -0.315
CCACUGGGAAUGCUCCCUGAGGACGUUAUAUGAGUG [hsa-mir-4319] | 0.802 | 0.399 | 0.544 | 0.953 | 0.872
CCCUGGUCAGACUCUCCGGGG [hsa-mir-4675] | -0.368 | -0.287 | -0.139 | -0.63 | -0.561
CAGCCCGUGGUGGGG [hsa-mir-3619] | 0.752 | 0.115 | 0.721 | 0.788 | 0.751
UUUUUGCAUUACGUUCUAUGGCAAAA [hsa-mir-548g] | -0.182 | -0.00229 | -0.297 | 1.18 | -0.0583
CACACACAAUCACCGUGUG [hsa-mir-3118-2_3118-3_3118-4] | -0.218 | -0.0846 | 0.0723 | 0.27 | -1.24
GCUACUGUCUGCACCUGUCACUAGCAGU [hsa-mir-130a] | 1.12 | -0.0477 | -0.279 | -1.49 | 1.58
AUCACUGAAAUAUGUCUGAGCUUCUGUU [hsa-mir-4501] | -0.658 | -0.00263 | -0.584 | -0.332 | -0.302
CCUCCCCCAGUGCCAGG [hsa-mir-3196] | -0.106 | -0.331 | -0.253 | -0.591 | 0.352
CUUUGUCAUUAAAACCAAUAACAAAA [hsa-mir-548ap] | 0.0976 | 0.223 | 0.331 | -0.92 | -0.638
UUUUCCCUUUCUCUUGCCCUGAAA [hsa-mir-4509-1_4509-3_4509-2] | -0.332 | -0.096 | -0.261 | -1 | -0.219
GUUCGCUUAAUUUAUGACGAAUC [hsa-mir-487a] | -0.395 | -0.215 | -0.221 | 0.269 | -0.483
GGAAAGGGGAUGCAGAGCCCUGCC [hsa-mir-4647] | 1.44 | 0.526 | 1.28 | 1.97 | 1.52

Sequence | pull-down binding Z-score (TO-N3 (biotin conjugate)) | pull-down binding Z-score [1] | pull-down binding Z-score [2] | pull-down binding Z-score [3] | pull-down binding Z-score [4]
GUGUAGGGGUGGCUACAC [hsa-mir-4717] | 0.346 | 0.281 | 0.385 | 0.957 | 0.235
UGGCCAUUUCCUACCA [hsa-mir-617] | -0.908 | -0.393 | -0.72 | -1.33 | -0.383
UCACUGCUGCUGGCGCCCUGA [hsa-mir-943] | 0.432 | 0.0365 | 0.0735 | -0.764 | 0.911
CACACUGGUGAGGUAACAGGAUCCGGUG [hsa-mir-182] | 0.38 | 0.0141 | 0.159 | 0.926 | 0.691
UGGGUUGUGUCAGUGUCAGACCUC [hsa-mir-146a] | 0.187 | -0.00346 | -0.496 | -0.421 | 0.838
GAGAGUGCUGUCUGAAUGCAAUGC [hsa-mir-500a] | 0.89 | 0.291 | 0.797 | 1.08 | 0.766
CUCGCUGGGAGGUGUGCUAUCGUCUUCCCUGGGAG [hsa-mir-3689d-2] | 0.338 | -0.246 | 0.157 | -0.351 | 0.541
UUUCUCUUGUCCAAAGGAAAAGAAG [hsa-mir-524] | -0.636 | -0.376 | -0.644 | -0.493 | -0.747
GUGGUUUCAGGGCAGUGAUGUUGCCCCUCGGAAGAUAACUAU [hsa-let-7b] | -0.128 | -0.113 | -0.324 | 0.231 | 0.235
UCCCCUAGCGCGCCUUCUGGAGA [hsa-mir-3188] | -0.0603 | -0.0116 | -0.271 | 1.12 | 0.507
GGAAUAGUGCUCCUGGUUGUUUC [hsa-mir-1180] | -0.303 | -0.353 | -0.548 | 0.894 | 0.243
GGGCUCGUGAUGGCUGGUGGGCCC [hsa-mir-345] | -0.356 | -0.191 | -0.497 | 3 | 0.665
AGGAGUUCACU [hsa-mir-1183] | -0.253 | -0.383 | -0.276 | -0.952 | 0.0749
CAUUGGUGUAAAGCUGGAGACCCACUG [hsa-mir-324] | 0.738 | 0.0332 | 0.527 | 0.528 | 1.09
CUCCGGGUUGGGG [hsa-mir-1469] | -0.718 | -0.476 | -0.552 | 0.177 | -0.557
GGCUCGUCUGUGUUGCCAAUCGACUC [hsa-mir-1307] | 0.973 | 0.232 | 0.723 | -0.468 | 0.866
AGGUGCUAGGUCGGCCUCGGC [hsa-mir-5787] | 1.01 | 0.351 | 0.284 | 1.28 | 1.47
GGGGCUGAGGCUGAGUCUUCCUCCC [hsa-mir-6756] | 0.806 | 0.101 | 0.154 | 0.713 | 1.53
CAGAGAUGAAAUUGGGACUCCUCU [hsa-mir-7157] | 0.499 | 0.343 | 0.189 | -0.282 | 0.835
CAAUUUGAGACCAAU [hsa-mir-1285-2] | -0.0272 | 0.444 | -0.0235 | -1.39 | 0.218
GCCUGCCCUGAGUCCCCCAGCAGGU [hsa-mir-3907] | 1.46 | 0.663 | 1.45 | -0.55 | 0.912
UUUUGCAAUUUUUUAAUGACAAAA [hsa-mir-548t] | -0.585 | -0.334 | -0.494 | -0.195 | -0.704
UAUCUAUAUAUAUGUGUA [hsa-mir-3171] | -0.0908 | -0.0303 | -0.0511 | -0.471 | 0.835
CUGAAAAUACAAAAUGGAAAAUUCCAG [hsa-mir-4494] | -0.0822 | 0.256 | -0.0909 | -1.38 | -0.365
UGGUCAGAUAUCCCAU [hsa-mir-8060] | -0.262 | -0.195 | -0.323 | -1.4 | -0.0919

Sequence | pull-down binding Z-score (TO-N3 (biotin conjugate)) | pull-down binding Z-score [1] | pull-down binding Z-score [2] | pull-down binding Z-score [3] | pull-down binding Z-score [4]
CUGUGCAGAACAUCCGCUCACCUGUACAG [hsa-mir-214] | 0.0753 | -0.43 | 0.0427 | 0.104 | 0.171
CAUACAUAUGCCUACUACUACUUUCAUAUGUAGGCAUAUGUAUG [hsa-mir-7852] | -0.8 | -0.144 | -0.502 | -0.626 | -0.89
GAGUACCUUCCAACACGAGCUCUC [hsa-mir-3664] | 0.318 | -0.173 | -0.183 | -1.16 | 1.06
GUGUUGGGUAUAAGUAACA [hsa-mir-1270] | 0.257 | 0.157 | -0.205 | -0.877 | 0.457
CCCAGCCUUCCAGAGUUGGUGCCAGG [hsa-mir-4476] | 1.14 | 0.0973 | 0.892 | -0.593 | 1.11
GCCGGAGCGGGC [hsa-mir-1181] | 0.703 | 0.0808 | 0.493 | 1.74 | 0.58
GAACCCAGGGAGCCAGACUGCCUGGGUUC [hsa-mir-607] | 0.843 | -0.182 | 1.05 | -0.0852 | -0.0198
GACAUCCCUCAUCUGUUUCUCACUGGUGUC [hsa-mir-6830] | -0.0985 | 0.244 | 0.191 | -0.521 | -0.507
UCCACCCUGGUCCAGGUCCACAGCAGUGGA [hsa-mir-4644] | 0.441 | 0.0936 | 0.173 | -0.617 | 0.479
AGAGCACCUCCUAGAGAAUGUUGAACUAAAGGUGCCC [hsa-mir-4723] | 0.813 | 0.528 | 0.573 | -0.814 | 1.16
CCUCAAUCACUUGCCAGAGAGAUUGG [hsa-mir-1200] | -0.196 | -0.188 | 0.0255 | -1.09 | -0.136
AGGUCUCCUGGCAU [hsa-mir-4256] | -0.164 | -0.439 | -0.274 | -0.698 | -0.096
CAAAUCGACUGUCCAAUGGAUUUG [hsa-mir-133a-2] | -0.674 | -0.146 | -0.529 | 2.07 | -0.536
CUCAACUCUUGGUCCUCUGAG [hsa-mir-3165] | -0.316 | 0.0789 | -0.385 | -0.955 | 0.545
CCUAGUGGCUAGCCCUGGGUCUAGCAGCCUAUGGCAGUGUCUGGUAAACACUGGUGGAGUCCUGGG [hsa-mir-6745] | 0.336 | -0.307 | -0.189 | 0.335 | 1.22
AGUUGAACACUUGUUGGGACAACCU [hsa-mir-4421] | 0.971 | 0.156 | 0.939 | -0.336 | 0.711
CUGGGAGGUGUGAUCCCGUGCUUCCUGG [hsa-mir-3689b] | -0.713 | -0.408 | -0.788 | -0.593 | 0.409
CCUGCCUCAGAACUACUGAACAGAGUCACUGGGUGUGGA [hsa-mir-1289-2] | 0.181 | -0.00545 | -0.292 | 0.873 | 0.785
UCAGCCCCAUAUGUAUCUGAAGGCUGA [hsa-mir-5694] | -0.337 | -0.286 | -0.404 | -0.92 | 0.0924
GGGUUCAAUAGAUUGCUUUAGCUGAAGCAAGCCU [hsa-mir-8054] | 0.00977 | 0.131 | 0.125 | -0.803 | -0.201
CACAAGACUAGGCUUCCCUGUG [hsa-mir-3152] | 0.13 | 0.0303 | 0.212 | -0.785 | -0.0548
CGGGGCGGACGCAGAGCCGCGUUUAGUCUAUCG [hsa-mir-639] | 0.593 | -0.137 | 0.0365 | -0.413 | 1.12
GCUGCCCCUUUGCUCUCUGGGGUAGC [hsa-mir-3614] | 0.258 | 0.0223 | 0.491 | 0.721 | -0.388
CUUUCUGUUGUCUAAAAGAAAAGAACG [hsa-mir-521-1] | -0.124 | 0.0499 | -0.211 | 0.795 | 0.0505
